Assay results taken from patent US20170224833A1, “SELF-ASSEMBLING MOLECULES THAT ACCUMULATE IN ACIDIC TUMOR MICROENVIRONMENTS” (OHIO STATE INNOVATION FOUNDATION, priority 2014, published 2017).
Residues, ends and D or L forms follow the SMILES beside them. *: point of attachment. Palmitoyl = CCCCCCCCCCCCCCCC(=O)*

Columns and labels:
[1] = Transmission electron microscopy (TEM) of self-assembled morphology; format: physicochemical; conditions: for average diameter of isolated nanofibers: 0.5 mM; for fiber diameter: pH 8.0 (100 μM, FIG. 40)
Protocol: TEM images were obtained using solutions of either 10 μM or 0.5 mM peptide amphiphile concentration, as well as 150 mM NaCl and 2.2 mM CaCl2 in Milli-Q water. The solutions were first heated at 80° C. for 30 minutes in a water bath and then gradually cooled to room temperature. This was followed by pH adjustment using either HCl or NaOH. 5 μL of this solution was pipetted onto a Carbon Formvar grid (Electron Microscopy Sciences) and allowed to sit for 2 minutes before being wicked dry using filter paper. For the 10 μM experiments that were performed to determine the time dependence of nanofiber formation, solutions were dropcast onto the grid within three minutes of pH adjustment. The samples were then negatively stained using 1 wt % uranyl acetate and imaged under a FEI Tecnai G2 Bio TWIN TEM system, operating at 100 kV. All TEM experiments were performed in triplicate, using at least three different freshly prepared solutions and grids. […]
TEM images were obtained at various concentrations and pH values, with 150 mM NaCl and 2.2 mM CaCl2 in deionized water. Solutions were heated at 80° C. for 30 minutes and gradually cooled to room temperature. Following temperature equilibration, pH adjustment was achieved using HCl or NaOH. 5 μL of this solution was pipetted onto a Carbon Formvar grid (Electron Microscopy Sciences) and allowed to sit for 2 minutes before being wicked dry using filter paper strips. The samples were negatively stained with 1 wt % uranyl acetate and imaged under a FEI Tecnai G2 Bio TWIN TEM system operating at 100 kV.
Transmission electron microscopy was employed to confirm the self-assembled morphology at different pH values and concentrations. The sample to be tested was basified to a pH of 10, stirred at 90° C. in an oil bath for 30 minutes and cooled to room temperature. The pH was then adjusted with HCl and NaOH to set the peptide solution (in 150 mM NaCl and 2.2 mM CaCl2) to a pH of either 5 or 9. Once the desired pH was reached, 5 μL of the sample was placed and spread onto a Carbon Formvar grid (Electron Microscopy Sciences) and allowed to sit for one minute before being wicked dry with filter paper. A 1 wt % uranyl acetate solution was added and spread over the grid to negatively stain the sample, and was wicked dry immediately after application. The grid was then examined by a FEI Tecnai G2 Biotwin TEM at 100 keV. The diameters of each self-assembled morphology was determined via averaging at least 30 different objects.

[2] = Circular dichroism (CD) spectroscopy of pH-triggered self-assembly transition in 150 mM NaCl, 2.2 mM CaCl2; format: physicochemical; conditions: for CD Transition pH: random coil to β-sheet; for secondary structure by CD: irrespective of concentration and pH (pH 5-10)
Protocol: The target PA concentration (10 μM) was below the detectable limit of conventional techniques to determine the morphology such as cryoTEM and small-angle X-ray scattering. Consequently, circular dichroism (CD) spectroscopy was initially used to characterize the morphology of these PAs at various pH values. PA1 was the first molecule synthesized that underwent a self-assembly transition in the desired pH range of 6.6-7.4 at 10 μM PA concentration, in 150 mM NaCl and 2.2 mM CaCl2 (FIG. 2A) (Goldberger, J. E., et al. Angew. Chem. Int. Ed. 2011 50:6292-95). […] The transition pH from random coil to β-sheet occurred at a pH of 6.6. The transition pH was defined as the value at which the ellipticity at 205 nm rises to zero, followed by the appearance of a minimum at 218-220 nm.
Measurements were done on a Jasco-815 Circular Dichroism spectrometer using 1 cm path length quartz cuvettes. 10 μM solutions of peptide amphiphiles were prepared in 150 mM NaCl and 2.2 mM CaCl2 by dilution from a concentrated PA stock (0.5-1 mM, pH 9). Double de-ionized Milli-Q water was used for preparing all solutions. The solutions were then heated at 80° C. for 30 minutes in a water bath and gradually cooled to room temperature. An Accumet XL15 pH meter (Fisher Scientific) coupled with an Orion Ross Ultra semi-micro electrode (8103BNUWP, Thermo Scientific) was used to adjust the pH of the solution to the desired value followed by collection of the CD spectra Each trace shown was averaged over 3 accumulations and was baseline subtracted using aqueous solutions containing salts only. All spectra are cut-off below 205 nm due to absorption by NaCl and CaCl2.
Measurements were done on a Jasco-815 Circular Dichroism spectrometer using 0.5-1 cm path length quartz cuvettes. 500-10 μM of either pure PA or PA mixtures were prepared in 150 mM NaCl and 2.2 mM CaCl2 (and 1.8 mM 20 kDa PEG in select samples) by dilution from a concentrated PA stock (0.5-1 mM, pH 9). Double de-ionized Milli-Q water was used for preparing all solutions. The solutions were then heated at 80° C. for 30 minutes in a water bath and gradually cooled to room temperature. An Accumet XL15 pH meter (Fisher Scientific) coupled with an Orion Ross Ultra semi-micro electrode (8103BNUWP, Thermo Scientific) was used to adjust the pH of the solution to the desired value followed by collection of the CD spectra. Each trace shown was averaged over 3 accumulations and was baseline subtracted using aqueous solutions containing salts only. All spectra are cut-off below 200 nm due to absorption by NaCl and CaCl2. The same procedure was followed for the salt control samples with 3.0 and 4.0 mM CaCl2.
Self-assembly behavior is known to be extremely sensitive to minor changes in monomer structure and presence of impurities. […] CAC measurements via the pyrene 1:3 method (Das, D. et al. J. Colloid Interface Sci. 2008, 327:198) were used to ascertain the single molecule to spherical micelle transitions at varying pH values (FIGS. 24A-24C). CD Spectroscopy was used to determine the pH points at which different concentrations (10-500 μM) of the PA molecules transitioned from a random coil to a β-sheet secondary structure (FIGS. 25A-25C). It has been previously shown that the random coil and β-sheet structures correspond to spherical micellar/isolated molecule and nanofiber morphologies respectively (Ghosh, A. et al. J. Am. Chem. Soc. 2012, 134:3647). The CD transition point was defined to be the pH value at which the ellipticity at 200 nm rose from a negative value (random coil) to zero accompanied by the appearance of a minimum at 218-220 nm. The addition of PA66 shifted the CD transition pH to more basic values by ˜0.6 pH units. […] This ˜0.6 pH shift in CD transition pH to more basic values were also observed when 1.5% of PA67 was added to PA65. […]

[3] = 10 μM PA, 150 mM NaCl, 2.2 mM CaCl2

CCCCCCCCCCCCCCCC(=O)N[C@H](C(=O)N[C@@H](C)C(=O)N[C@@H](C)C(=O)N[C@@H](C)C(=O)N[C@@H](CCC(=O)O)C(=O)N[C@@H](CCC(=O)O)C(=O)N[C@@H](CCC(=O)O)C(=O)N[C@@H](CCC(=O)O)C(N)=O)[C@@H](C)CC [PA1] (Palmitoyl-IAAAEEEE-NH2)
average diameter of isolated fibers ([1]; 10 μM, pH 6): 9.1±1.5 nm
average length of isolated fibers ([1]; 10 μM, pH 6, grids within three minutes of pH adjustment): 590±200 nm
fibers observed by TEM ([1]; 10 μM, pH 8): no fibers were present
average diameter of isolated nanofibers ([1]; pH 6.0): 9.4±1.1 nm
average diameter of isolated nanofibers ([1]; pH 10.0): 9.5±1.2 nm
pH above which CD shows superimposable random coil morphology [2, 3]: 6.82
CD Transition pH [2, 3]: 6.6
time required to achieve the expected morphology after pH change ([2]; 10 μM, 150 mM NaCl, 2.2 mM CaCl2): three minutes or less
transition between random coil and β-sheet structure (reversibility) ([2]; 10 μM, pH switched between 7.75 and 6.1, three cycles): rapid and reversible
pH transition point at 10 μm PA ([2]; basic to acidic transition from small molecule to cylindrical nanofiber, simulated serum environment): 6.6

Palmitoyl-AIAAEEEEK(DO3A:Gd)-NH2 (Palmitoyl-AIAAEEEEK(DO3A)-NH2; also: DO3A chelates Gd) [PA71]
nanofiber length ([1]; pH 6.6, 150 μM): > 1 μm
nanofiber width ([1]; pH 6.6, 150 μM): ~11.3±1.1 nm
fiber diameter [1]: ~9.6±0.5 nm
secondary structure by CD [2]: exclusively 3-sheet formation irrespective of concentration and pH

palmitoyl-YYAAEEEEEK(DO3A:Gd)-NH2 (Palmitoyl-YYAAEEEEEK(DO3A)-NH2; also: DO3A chelates Gd) [PA74]
nanofiber diameter ([1]; FIG. 50: pH 5, PA74 500 μM, PA75 100 μM): 9.7+/−1.2 nm
morphology by TEM ([1]; pH 5, PA74 500 μM, PA75 100 μM): nanofiber morphology
morphology by TEM ([1]; pH 9, PA74 500 μM, PA75 100 μM): spherical micelle morphology
pH below which nanofibers form (CD morphology transition) ([2]; 50 μM): 5.75

Palmitoyl-AAAIEEEE-NH2 (SMILES CCCCCCCCCCCCCCCC(=O)N[C@@H](C)C(=O)N[C@@H](C)C(=O)N[C@@H](C)C(=O)N[C@H](C(=O)N[C@@H](CCC(=O)O)C(=O)N[C@@H](CCC(=O)O)C(=O)N[C@@H](CCC(=O)O)C(=O)N[C@@H](CCC(=O)O)C(N)=O)[C@@H](C)CC) [PA70]
fiber diameter [1]: ~9.0±0.8 nm
secondary structure by CD [2]: β-sheet secondary structure regardless of concentration and pH

CCCCCCCCCCCCCCCC(=O)N[C@@H](C)C(=O)N[C@H](C(=O)N[C@@H](C)C(=O)N[C@@H](C)C(=O)N[C@@H](CCC(=O)O)C(=O)N[C@@H](CCC(=O)O)C(=O)N[C@@H](CCC(=O)O)C(=O)N[C@@H](CCC(=O)O)C(N)=O)[C@@H](C)CC [PA68] (Palmitoyl-AIAAEEEE-NH2)
nanofiber diameter ([1]; 100 μM, pH 5.0 and 8.3): 9.5±0.8 nm
morphology by CD ([2]; 8.4 μM and above): formed nanofibers across all pH values

Palmitoyl-IAAAEEEEK(DO3A:Gd)-NH2 (Palmitoyl-IAAAEEEEK(DO3A)-NH2; also: DO3A chelates Gd) [PA5]
nanofiber diameter ([1]; 0.5 mM PA, pH 4): 11.9±1.6 nm
spherical micelle diameter ([1]; 0.5 mM PA, pH 10): 10.0±1.2 nm
CD Transition pH [2, 3]: 5.7
nanofiber to micelle transition pH ([2]; 20 μM PA): 5.7
nanofiber to micelle transition pH ([2]; 0.5 mM PA): 6.0
pH transition point at 10 μm PA ([2]; basic to acidic transition from spherical micelle to cylindrical fiber, simulated serum environment (150 mM NaC, 2.2 mM CaCl2)): 5.7
